According to publication doi:10.1101/2020.06.02.131086:

Target: human S100A5 (hA5) (human) (UniProt P33763)
Assay: ITC

UniProt P33763, sequence (P33763 whole entry): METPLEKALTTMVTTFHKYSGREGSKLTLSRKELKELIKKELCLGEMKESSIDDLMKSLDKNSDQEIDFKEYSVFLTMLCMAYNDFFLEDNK

Binder: GAGGERWQRVLLSLAEDV [α-1-syn peptide (fragment of human α-1-syntrophin)]
- Kd: 4.8 µM
- dH (kcal · mol^−1): -4.5
